Experimental data from patent publication US20240117018A1.

What was measured:
Experiment in all cases: cell-based or functional assay
[1] = molecular target: HIV-1 Env of pseudovirus CAP210.2.00.E8 (HIV-1)
[2] = molecular target: HIV-1 Env of pseudovirus 1394C9G1(Rev-) (HIV-1)
[3] = molecular target: HIV-1 Env of pseudovirus 1056_10_TA11_1826 (HIV-1)
[4] = molecular target: HIV-1 Env of pseudovirus CNE52 (HIV-1)
[5] = molecular target: HIV-1 Env of pseudovirus AC10.0.29 (HIV-1)
[6] = molecular target: HIV-1 Env of pseudovirus Q842.d12 (HIV-1)
[7] = molecular target: HIV-1 Env of pseudovirus ZM247v1(Rev-) (HIV-1)
[8] = molecular target: HIV-1 Env pseudovirus Q842.d12 (HIV-1)
[9] = molecular target: HIV-1 Env pseudovirus ZM214M.PL15 (HIV-1)
[10] = molecular target: HIV-1 Env pseudovirus Q461.e2 (HIV-1)
[11] = molecular target: HIV-1 Env pseudovirus Ce0682_E4 (HIV-1)
[12] = molecular target: HIV-1 Env pseudovirus Ce1086_B2 (HIV-1)
[13] = molecular target: HIV-1 Env pseudovirus CNE53 (HIV-1)
[14] = molecular target: HIV-1 Env pseudovirus Ce0393_C3 (HIV-1)
[15] = molecular target: HIV-1 Env pseudovirus CNE21 (HIV-1)
[16] = molecular target: HIV-1 Env pseudovirus Ce2010_F5 (HIV-1)
[17] = molecular target: HIV-1 Env pseudovirus PVO.4 (HIV-1)
[18] = molecular target: HIV-1 Env pseudovirus HIV-0013095-2.11 (HIV-1)
[19] = molecular target: HIV-1 Env pseudovirus 1056_10_TA11_1826 (HIV-1)
[20] = molecular target: HIV-1 Env pseudovirus T255-34 (HIV-1)
[21] = molecular target: HIV-1 Env pseudovirus X1632_S2_B10 (HIV-1)
[22] = molecular target: HIV-1 Env pseudovirus 211-9 (HIV-1)
[23] = molecular target: HIV-1 Env pseudovirus 6545.v4.c1 (HIV-1)
[24] = molecular target: HIV-1 Env pseudovirus R1166.c01 (HIV-1)
[25] = molecular target: HIV-1 Env pseudovirus 3817.v2.c59 (HIV-1)
[26] = molecular target: HIV-1 Env pseudovirus X1254_c3 (HIV-1)

## NIH 45-46 (antibody)
[1]
  IC50: > 50 µg/mL
  IC80: > 50 µg/mL
[2]
  IC50: 0.09 µg/mL
  IC80: 0.38 µg/mL
[3]
  IC50: 0.12 µg/mL
  IC80: 0.59 µg/mL
[4]
  IC50: 0.03 µg/mL
  IC80: 0.12 µg/mL
[5]
  IC50: 0.42 µg/mL
  IC80: 1.49 µg/mL
[6]
  IC50: 0.03 µg/mL
  IC80: 0.03 µg/mL
[7]
  IC50: 1.64 µg/mL
  IC80: > 50 µg/mL

## N49P11 (antibody)
[8]
  IC50: 0.027 µg/mL
  IC80: 0.103 µg/mL
  MPI: 100
[9]
  IC50: 1.35 µg/mL
  IC80: 8.98 µg/mL
  MPI: 100
[10]
  IC50: 0.363 µg/mL
  IC80: 2.15 µg/mL
  MPI: 100
[11]
  IC50: 0.091 µg/mL
  IC80: 0.387 µg/mL
  MPI: 100
[12]
  IC50: 2.19 µg/mL
  IC80: 11.7 µg/mL
  MPI: 100
[13]
  IC50: 0.43 µg/mL
  IC80: 2.88 µg/mL
  MPI: 100
[14]
  IC50: 1.51 µg/mL
  IC80: 9.71 µg/mL
  MPI: 100
[15]
  IC50: 7.4 µg/mL
  IC80: 21.9 µg/mL
  MPI: 100
[16]
  IC50: 0.38 µg/mL
  IC80: 3.27 µg/mL
  MPI: 100
[17]
  IC50: 0.248 µg/mL
  IC80: 1.17 µg/mL
  MPI: 100
[18]
  IC50: 5.85 µg/mL
  IC80: 17.8 µg/mL
  MPI: 100
[19]
  IC50: 4.77 µg/mL
  IC80: 14.2 µg/mL
  MPI: 100

## N49P7 (antibody)
[1]
  IC50: 1.82 µg/mL
  IC80: 6.49 µg/mL
  MPI: 100
[2]
  IC50: 3.84 µg/mL
  IC80: 21.1 µg/mL
  MPI: 94
[3]
  IC50: 0.141 µg/mL
  IC80: 0.468 µg/mL
  MPI: 100
[4]
  IC50: 0.008 µg/mL
  IC80: 0.023 µg/mL
  MPI: 100
[5]
  IC50: 5.03 µg/mL
  IC80: 36.7 µg/mL
  MPI: 89
[6]
  IC50: 0.021 µg/mL
  IC80: 0.06 µg/mL
  MPI: 100
[7]
  IC50: 0.062 µg/mL
  IC80: 0.214 µg/mL
  MPI: 100

## PGT128 (antibody)
[1]
  neutralization IC50: > 50 µg/mL
  neutralization IC80: > 50 µg/mL
[2]
  neutralization IC50: 0.011 µg/mL
  neutralization IC80: 0.034 µg/mL
[3]
  neutralization IC50: < 0.001 µg/mL
  neutralization IC80: 0.008 µg/mL
[4]
  neutralization IC50: > 50 µg/mL
  neutralization IC80: > 50 µg/mL
[5]
  neutralization IC50: 0.008 µg/mL
  neutralization IC80: 0.018 µg/mL
[6]
  neutralization IC50: 0.008 µg/mL
  neutralization IC80: 0.102 µg/mL
[7]
  neutralization IC50: 0.021 µg/mL
  neutralization IC80: 0.081 µg/mL

## VRC07 (antibody)
[20]
  IC50 (Titer in TZM.bl cells): 0.227 µg/mL
  IC80 (Titer in TZM.bl cells): 0.987 µg/mL
[21]
  IC50 (Titer in TZM.bl cells): 0.023 µg/mL
  IC80 (Titer in TZM.bl cells): 0.107 µg/mL
[1]
  IC50: > 50 µg/mL
  IC80: > 50 µg/mL
[22]
  IC50 (Titer in TZM.bl cells): 5.92 µg/mL
  IC80 (Titer in TZM.bl cells): 38 µg/mL
[2]
  IC50: 0.112 µg/mL
  IC80: 0.368 µg/mL
[23]
  IC50 (Titer in TZM.bl cells): > 50 µg/mL
  IC80 (Titer in TZM.bl cells): > 50 µg/mL
[3]
  IC50: 0.239 µg/mL
  IC80: 1.11 µg/mL
[24]
  IC50 (Titer in TZM.bl cells): 0.81 µg/mL
  IC80 (Titer in TZM.bl cells): 3.17 µg/mL
[4]
  IC50: 0.042 µg/mL
  IC80: 0.142 µg/mL
[25]
  IC50 (Titer in TZM.bl cells): 1.9 µg/mL
  IC80 (Titer in TZM.bl cells): 19.8 µg/mL
[5]
  IC50: 0.282 µg/mL
  IC80: 0.986 µg/mL
[26]
  IC50 (Titer in TZM.bl cells): 0.041 µg/mL
  IC80 (Titer in TZM.bl cells): 0.2 µg/mL
[6]
  IC50: 0.015 µg/mL
  IC80: 0.051 µg/mL
[7]
  IC50: 0.041 µg/mL
  IC80: 0.189 µg/mL

## VRC01 (antibody)
[20]
  IC50 (Titer in TZM.bl cells): 0.7 µg/mL
  IC80 (Titer in TZM.bl cells): 2.7 µg/mL
[21]
  IC50 (Titer in TZM.bl cells): 0.12 µg/mL
  IC80 (Titer in TZM.bl cells): 0.74 µg/mL
[22]
  IC50 (Titer in TZM.bl cells): 14.3 µg/mL
  IC80 (Titer in TZM.bl cells): > 50 µg/mL
[23]
  IC50 (Titer in TZM.bl cells): > 50 µg/mL
  IC80 (Titer in TZM.bl cells): > 50 µg/mL
[8]
  IC50 (Titer in TZM.bl cells): 0.03 µg/mL
  IC80 (Titer in TZM.bl cells): 0.096 µg/mL
[9]
  IC50 (Titer in TZM.bl cells): 0.44 µg/mL
  IC80 (Titer in TZM.bl cells): 2.6 µg/mL
[10]
  IC50 (Titer in TZM.bl cells): 0.49 µg/mL
  IC80 (Titer in TZM.bl cells): 1.6 µg/mL
[24]
  IC50 (Titer in TZM.bl cells): 1.7 µg/mL
  IC80 (Titer in TZM.bl cells): 4.58 µg/mL
[11]
  IC50 (Titer in TZM.bl cells): 0.08 µg/mL
  IC80 (Titer in TZM.bl cells): 0.48 µg/mL
[12]
  IC50 (Titer in TZM.bl cells): 0.42 µg/mL
  IC80 (Titer in TZM.bl cells): 1.44 µg/mL
[25]
  IC50 (Titer in TZM.bl cells): > 50 µg/mL
  IC80 (Titer in TZM.bl cells): > 50 µg/mL
[14]
  IC50 (Titer in TZM.bl cells): 0.62 µg/mL
  IC80 (Titer in TZM.bl cells): 2.37 µg/mL
[26]
  IC50 (Titer in TZM.bl cells): 0.07 µg/mL
  IC80 (Titer in TZM.bl cells): 0.19 µg/mL
[16]
  IC50 (Titer in TZM.bl cells): 0.32 µg/mL
  IC80 (Titer in TZM.bl cells): 1.07 µg/mL
[17]
  IC50 (Titer in TZM.bl cells): 0.22 µg/mL
  IC80 (Titer in TZM.bl cells): 1.2 µg/mL
[18]
  IC50 (Titer in TZM.bl cells): 0.11 µg/mL
  IC80 (Titer in TZM.bl cells): 0.33 µg/mL
[19]
  IC50 (Titer in TZM.bl cells): 0.92 µg/mL
  IC80 (Titer in TZM.bl cells): 3.28 µg/mL
